# Patent US20170056473A1 (published 2017)
# Legend:
# Test in all cases: cytokine release
# [1] = biological target: T1, EBV LMP1; LMP1*167 peptide on HLA-A*02:01 (human)
# T1 peptide: LLVDLLWLL
# [2] = biological target: T2, EBV LMP1; LMP1*32 peptide on HLA-A*02:01 (human)
# T2 peptide: LLLALLFWL
# [3] = biological target: T3, EBV LMP1; LMP1*92 peptide on HLA-A*02:01 (human)
# T3 peptide: LLLIALWNL
# [4] = biological target: T4, EBV LMP1; LMP1*125 peptide on HLA-A*02:01 (human)
# T4 peptide: YLLEMLWRL
# [5] = biological target: T5, EBV LMP1; printed as LMP1*125 (the same label as …) peptide on HLA-A*02:01 (human)
# T5 peptide: YLQQNWWTL
# [6] = biological target: T6, EBV LMP1; LMP1*173 peptide on HLA-A*02:01 (human)
# T6 peptide: WLLLFLAIL
binder,measurement,setting,value
"LMP1*166 S4-12 TCR (TCR, V domains shown) Valpha: GEQVEQRPPHLSVREGDSAVIICTYTDPNSYYFFWYKQEPGAGLQLLMKVFSSTEINEGQGFTVLLNKKDKQLSLNLTAAHPGDSAVYFCAVSGTGGYKVVFGSGTRLLVSP Vbeta: NSKVIQTPRYLVKGQGQKAKMRCIPEKGHPVVFWYQQNKNNEFKFLINFQNQEVLQQIDMTEKRFSAECPSNSPCSLEIQSSEAGDSALYLCASNQLGSSYEQYFGPGTRLTVL",binding result,[1],recognises
same,binding result,[2],no recognition
same,binding result,[3],no recognition
same,binding result,[4],no recognition
same,binding result,[5],no recognition
same,binding result,[6],no recognition
